The text below walks through data of publication PMC3010429.

For this data set, the target named is hMutSα (hMSH2-hMSH6) WT recombinant (Homo sapiens, UniProt P43246;P52701 1-934;1-1360). The data set is described as follows: EMSA, supershift. On the technique in general: Mobility shift assays separate free from complexed probe on a gel.
Chain of hMutSα (hMSH2-hMSH6) WT recombinant (P43246 whole entry, chain 1 of 2): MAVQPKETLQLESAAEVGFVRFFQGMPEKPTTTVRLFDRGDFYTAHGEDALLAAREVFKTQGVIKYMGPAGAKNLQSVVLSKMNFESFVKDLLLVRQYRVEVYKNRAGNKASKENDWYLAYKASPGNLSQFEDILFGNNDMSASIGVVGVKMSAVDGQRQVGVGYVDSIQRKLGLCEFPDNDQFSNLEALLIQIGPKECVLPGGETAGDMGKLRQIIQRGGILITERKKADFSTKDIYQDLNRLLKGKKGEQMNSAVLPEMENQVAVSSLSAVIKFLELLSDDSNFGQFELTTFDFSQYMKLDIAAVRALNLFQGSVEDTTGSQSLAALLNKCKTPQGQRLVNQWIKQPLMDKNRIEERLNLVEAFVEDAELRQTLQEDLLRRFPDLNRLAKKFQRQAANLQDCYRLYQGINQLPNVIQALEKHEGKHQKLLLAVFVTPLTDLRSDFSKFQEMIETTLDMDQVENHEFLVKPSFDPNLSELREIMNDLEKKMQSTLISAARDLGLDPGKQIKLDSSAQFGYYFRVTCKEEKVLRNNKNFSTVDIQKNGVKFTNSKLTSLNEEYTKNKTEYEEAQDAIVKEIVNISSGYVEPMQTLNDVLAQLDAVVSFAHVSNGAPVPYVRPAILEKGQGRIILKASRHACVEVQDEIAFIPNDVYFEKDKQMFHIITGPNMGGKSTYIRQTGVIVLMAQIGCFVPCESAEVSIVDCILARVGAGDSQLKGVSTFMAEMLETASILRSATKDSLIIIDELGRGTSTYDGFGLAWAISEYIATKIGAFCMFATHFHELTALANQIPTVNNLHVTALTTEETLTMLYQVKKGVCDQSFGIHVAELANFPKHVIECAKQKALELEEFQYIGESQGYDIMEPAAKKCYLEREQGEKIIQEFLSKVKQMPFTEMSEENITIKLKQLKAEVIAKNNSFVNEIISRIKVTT
Chain of hMutSα (hMSH2-hMSH6) WT recombinant (P52701 whole entry, chain 2 of 2): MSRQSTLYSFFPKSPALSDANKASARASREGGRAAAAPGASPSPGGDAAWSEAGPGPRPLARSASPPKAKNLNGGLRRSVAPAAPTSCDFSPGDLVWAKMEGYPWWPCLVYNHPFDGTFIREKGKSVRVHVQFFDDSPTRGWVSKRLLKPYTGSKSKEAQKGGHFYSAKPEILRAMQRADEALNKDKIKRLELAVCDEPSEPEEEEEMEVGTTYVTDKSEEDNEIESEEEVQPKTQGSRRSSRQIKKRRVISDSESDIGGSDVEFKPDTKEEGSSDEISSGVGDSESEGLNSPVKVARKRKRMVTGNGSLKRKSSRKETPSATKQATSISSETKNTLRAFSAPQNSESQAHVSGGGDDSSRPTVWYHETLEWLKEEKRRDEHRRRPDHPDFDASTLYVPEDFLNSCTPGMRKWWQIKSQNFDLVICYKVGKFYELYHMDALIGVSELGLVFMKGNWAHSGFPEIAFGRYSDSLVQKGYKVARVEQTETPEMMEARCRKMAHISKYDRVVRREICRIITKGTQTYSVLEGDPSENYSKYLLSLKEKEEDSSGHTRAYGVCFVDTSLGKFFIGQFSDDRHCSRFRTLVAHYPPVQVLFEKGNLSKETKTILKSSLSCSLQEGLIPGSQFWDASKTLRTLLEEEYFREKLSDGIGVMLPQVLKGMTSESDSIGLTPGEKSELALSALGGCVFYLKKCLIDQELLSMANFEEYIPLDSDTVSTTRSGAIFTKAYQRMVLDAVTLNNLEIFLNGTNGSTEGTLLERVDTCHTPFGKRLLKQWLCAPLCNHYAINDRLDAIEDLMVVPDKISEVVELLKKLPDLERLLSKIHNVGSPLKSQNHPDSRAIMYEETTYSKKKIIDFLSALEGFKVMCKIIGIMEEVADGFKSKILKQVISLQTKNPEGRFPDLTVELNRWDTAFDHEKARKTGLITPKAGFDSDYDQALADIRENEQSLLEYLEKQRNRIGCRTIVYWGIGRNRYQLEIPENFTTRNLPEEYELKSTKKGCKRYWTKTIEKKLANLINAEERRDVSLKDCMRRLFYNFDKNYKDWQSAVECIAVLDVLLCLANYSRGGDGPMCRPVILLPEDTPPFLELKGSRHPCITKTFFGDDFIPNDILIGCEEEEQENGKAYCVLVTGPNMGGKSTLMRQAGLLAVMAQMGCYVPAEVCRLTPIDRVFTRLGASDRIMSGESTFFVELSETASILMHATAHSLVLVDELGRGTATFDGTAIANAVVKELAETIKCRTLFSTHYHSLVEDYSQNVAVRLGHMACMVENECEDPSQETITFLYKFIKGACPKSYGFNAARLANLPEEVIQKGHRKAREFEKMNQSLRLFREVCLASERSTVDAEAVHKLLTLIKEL

B1: G:T 69mer (dsDNA)
DNA 1: AATTCACGGAATATAAGCTGGTGGTGGTGGGCGCCGGCGGTTGGGCAAGAGTGCGCTGACCATCCAGG
DNA 2: CCTGGATGGTCAGCGCACTCTTGCCCAACCGTCGGCGCCCACCACCACCAGCTTATATTCCGTGAATT
B1: the binding result is “binds”.
